Assays:
Settings in all cases: 20 nM; 72 h
MCF10A [1] = test: percent viability (nuclei count relative to siNT); higher = more viable cells
Description: (§1)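 After 72 h, cells were fixed and stained with Hoechst and anti-fibrillarin, and nucleoli per nucleus were counted with CellProfiler. Values are plate-adjusted percent effect for the one-nucleolus and 5+ nucleoli phenotypes, normalised to siNT (0%) and to the positive controls siNOL11 or siKIF11 (100%), as the mean of biological triplicates. Percent viability is the nuclei count relative to siNT.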

MCF10A [2] = test: one-nucleolus phenotype percent effect (relative to siNT 0% and siNOL11 100%); higher = more cells with one nucleolus (ribosome biogenesis inhibition)
Description: as §1

MCF10A [3] = test: 5+ nucleoli phenotype percent effect (relative to siNT 0% and siKIF11 100%); higher = more cells with five or more nucleoli
Description: as §1

Row | Sequence | percent viability (MCF10A [1]) [%] | one-nucleolus phenotype percent effect (MCF10A [2]) [%] | 5+ nucleoli phenotype percent effect (MCF10A [3]) [%]
1 | AACUAGCUCUGUGGAUCCUGAC [hsa-miR-4661-5p] | 13.9 | 21.8 | -18.4
2 | AACUAGUAAUGUUGGAUUAGGG [hsa-miR-3923] | 21.9 | 43.2 | -20.8
3 | AACUCACGAAGUAUACCGAAGU [hsa-miR-4798-3p] | 48.2 | -1.81 | 11.4
4 | AACUCCAAACACUCAAAACUCA [hsa-miR-3145-5p] | 119 | -24.6 | 43.6
5 | AACUCGUGUUCAAAGCCUUUAG [hsa-miR-4636] | 53.6 | 8.89 | 12.8
6 | AACUCUAGCCUGAGCAACAG [hsa-miR-5684] | 40.5 | 2.62 | -2.91
7 | AACUCUGACCCCUUAGGUUGAU [hsa-miR-4714-5p] | 41.1 | -5.26 | -16.1
8 | AACUCUGUCUUCACUCAUGAGU [hsa-miR-3664-5p] | 60.5 | -2.78 | 6.12
9 | AACUGAACCAGGAGUGAGCUUCG [hsa-miR-4724-5p] | 77.9 | 6.7 | -1.37
10 | AACUGGAUCAAUUAUAGGAGUG [hsa-miR-1243] | 174 | -29.3 | 53.3
11 | AACUGGCCCUCAAAGUCCCGCU [hsa-miR-193b-3p] | 16.9 | 24.4 | -6.55
12 | AACUGGCCUACAAAGUCCCAGU [hsa-miR-193a-3p] | 21.9 | 29.5 | -15.2
13 | AACUGUUUGCAGAGGAAACUGA [hsa-miR-452-5p] | 103 | -22.3 | 28.4
14 | AAGAAGAGACUGAGUCAUCGAAU [hsa-miR-5197-3p] | 24.8 | -5.79 | 26.1
15 | AAGACGGGAGGAAAGAAGGGAG [hsa-miR-483-5p] | 51.5 | 19.1 | -31.8
16 | AAGACUGAGAGGAGGGA [hsa-miR-4499] | 123 | -14 | 3.14
17 | AAGAGAACUGAAAGUGGAGCCU [hsa-miR-3925-5p] | 49.5 | -13 | -8.02
18 | AAGAGAGGAGCAGUGGUGCUGUGG [hsa-miR-6856-5p] | 52.1 | 0.793 | -5.13
19 | AAGAGGAAGAAAUGGCUGGUUCUCAG [hsa-miR-3916] | 14 | -5.24 | -13.2
20 | AAGAUGUGGAAAAAUUGGAAUC [hsa-miR-576-3p] | 48 | 17.9 | -7.01

Row | Sequence | percent viability (MCF10A [1]) [%] | one-nucleolus phenotype percent effect (MCF10A [2]) [%] | 5+ nucleoli phenotype percent effect (MCF10A [3]) [%]
21 | AAGCAAUACUGUUACCUGAAAU [hsa-miR-3942-5p] | 36.6 | -6.02 | 13.9
22 | AAGCAGCAGUGGCAAGACUCCU [hsa-miR-6838-5p] | 24.7 | 31.1 | -35.6
23 | AAGCAUUCUUUCAUUGGUUGG [hsa-miR-1179] | 98.7 | 1.48 | 0.87
24 | AAGCCCUGUCUCCUCCCAUCU [hsa-miR-6779-3p] | 68.1 | 9.83 | -41.9
25 | AAGCCCUUACCCCAAAAAGCAU [hsa-miR-129-2-3p] | 64.7 | 24 | -31.7
26 | AAGCCCUUACCCCAAAAAGUAU [hsa-miR-129-1-3p] | 54.9 | 23.6 | -37.4
27 | AAGCCUCUGUCCCCACCCCAG [hsa-miR-6819-3p] | 70.8 | -17.6 | -5.25
28 | AAGCCUGCCCGGCUCCUCGGG [hsa-miR-596] | 74.8 | -4 | -11.4
29 | AAGCGACCAUGAUGUAACUUCA [hsa-miR-4670-5p] | 49.2 | 14 | -4.37
30 | AAGCUCAGGUUUGAGAACUGCUGA [hsa-miR-6854-5p] | 57.3 | 18.3 | -24.5
31 | AAGCUGCCAGUUGAAGAACUGU [hsa-miR-22-3p] | 35.3 | -3.65 | 8.61
32 | AAGCUUUUUGCUCGAAUUAUGU [hsa-miR-208b-5p] | 108 | -24.2 | -1.23
33 | AAGGAACCAGAAAAUGAGAAGU [hsa-miR-3914] | 111 | -40.6 | 57.2
34 | AAGGCAGGGCCCCCGCUCCCC [hsa-miR-940] | 12.8 | 45.5 | -29.5
35 | AAGGCCCGGGCUUUCCUCCCAG [hsa-miR-4747-3p] | 29.2 | 31.7 | -14.1
36 | AAGGCCUUUCUGAACCUUCAGA [hsa-miR-3142] | 23.2 | 19.5 | -15
37 | AAGGGAAGAUGGUGACCAC [hsa-miR-9500] | 26 | 15.1 | -15.3
38 | AAGGGACAGGGAGGGUCGUGG [hsa-miR-7845-5p] | 60.5 | -13.3 | 2.91
39 | AAGGGAGGAGGAGCGGAGGGGCCCU [hsa-miR-4739] | 19.6 | 21.1 | 4.78
40 | AAGGGCUUCCUCUCUGCAGGAC [hsa-miR-3158-3p] | 12.1 | 32.8 | -9.95

Row | Sequence | percent viability (MCF10A [1]) [%] | one-nucleolus phenotype percent effect (MCF10A [2]) [%] | 5+ nucleoli phenotype percent effect (MCF10A [3]) [%]
41 | AAGGGGCAGGGACGGGUGGCCC [hsa-miR-6743-5p] | 29.4 | 1.94 | 0.112
42 | AAGGGGCUGGGGGAGCACA [hsa-miR-6085] | 22 | 33.3 | -17.6
43 | AAGGGGGAAGGAAACAUGGAGA [hsa-miR-4716-3p] | 21.3 | 21.6 | -6.04
44 | AAGGUAUUGUUCAGACUUAUGA [hsa-miR-4678] | 38.9 | 5.33 | -18
45 | AAGGUUUGGAUAGAUGCAAUA [hsa-miR-4464] | 29.7 | 6.58 | -24.5
46 | AAGUAGUUGGUUUGUAUGAGAUGGUU [hsa-miR-1244] | 44.6 | 12.3 | -0.297
47 | AAGUCCCACUAAUGCCAGC [hsa-miR-5588-3p] | 42.5 | 6.67 | -3.98
48 | AAGUCCUGCUUCUGUUGCAG [hsa-miR-6838-3p] | 56.4 | -6.74 | -28.6
49 | AAGUGAUCUAAAGGCCUACAU [hsa-miR-1245a] | 48.6 | 10.4 | -34
50 | AAGUGCCCCCACAGUUUGAGUGC [hsa-miR-371b-3p] | 84.2 | -25.4 | 68.5
51 | AAGUGCCGCCAUCUUUUGAGUGU [hsa-miR-371a-3p] | 45.8 | -8.12 | -0.0057
52 | AAGUGCCUCCUUUUAGAGUGUU [hsa-miR-519e-3p] | 40.9 | -10.9 | -1.33
53 | AAGUGCUGUCAUAGCUGAGGUC [hsa-miR-512-3p] | 69.7 | -17.8 | 45.1
54 | AAGUGCUUCCUUUUAGAGGGUU [hsa-miR-520f] | 46.9 | 4.79 | 26.9
55 | AAGUGUGCAGGGCACUGGU [hsa-miR-648] | 20.9 | 40.5 | -33.3
56 | AAGUUCUGUUAUACACUCAGGC [hsa-miR-148b-5p] | 37.1 | 11.3 | -28.2
57 | AAGUUGGCUGCAGUUAAGGUGG [hsa-miR-4715-5p] | 22.1 | -2.6 | -13.4
58 | AAUAAAGUUCAUGUAUGGCAA [hsa-miR-5590-3p] | 61.8 | -1.04 | -19
59 | AAUAAUACAUGGUUGAUCUUU [hsa-miR-369-3p] | 162 | -9.36 | 11.7

— the supplement of paper PMC10899765
